From US20260167718A1 (Merck Sharp & Dohme, published 2026)

T1: rhesus ILT3-His tagged recombinant protein (rhesus monkey (Macaca mulatta))
T1 construct: also called ILT3_MM; not shown: His tag
T1 chain: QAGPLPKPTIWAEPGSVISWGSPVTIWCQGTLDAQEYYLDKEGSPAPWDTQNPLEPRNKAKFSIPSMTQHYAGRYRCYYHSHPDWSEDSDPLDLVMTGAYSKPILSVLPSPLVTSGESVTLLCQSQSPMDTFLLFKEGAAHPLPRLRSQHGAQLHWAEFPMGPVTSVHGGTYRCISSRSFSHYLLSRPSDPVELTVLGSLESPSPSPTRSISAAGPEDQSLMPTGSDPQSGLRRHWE


How the values were obtained:
[1] = target: T1, rhesus ILT3-His tagged recombinant …; assay: SPR (Biacore), rhesus ILT3-His
Method: (§1) The binding kinetics and affinities of anti-human ILT3 clones for human or rhesus ILT3-His tagged recombinant protein were measured by surface plasmon resonance using a Biacore™ T200 system (GE Healthcare, Piscataway, NJ). HBS-EP+ buffer (BR-1006-69) was used as the running buffer. Anti-human Fc antibody (Human Fc Capture Kit, BR100839, GE Healthcare) was immobilized via amine coupling chemistry in all four flow cells on a Series S CM5 sensor chip (BR100530 or 29149603, GE Healthcare) following manufacturer instructions. Flow cell 1 was used as reference for background subtraction and was not used for capture. […] Following each injection cycle, all four flow cells were regenerated using 30 second injection of 3M MgCl₂ solution at a flow rate of 10 μL/minute. Reference subtracted sensorgrams were fit to a 1:1 Langmuir Binding Model in the Biacore™ T200 Evaluation Software (Version 2.0) to determine the association (ka) and dissociation (kd) rate constants and the equilibrium dissociation constant KD (=kd/ka).

[2] = target: T2, human ILT3 expressed on cells (human, UniProt Q8NHJ6 22-448); assay: cELISA, CHO human ILT3 cells
T2 construct: whole, on cells; also called huILT3; LILRB4

[3] = target: T3, Human ILT3 (LILRB4) extracellular domain with C-terminal His Tag (human, UniProt Q8NHJ6 22-259); assay: SPR (Biacore), human ILT3-His
T3 construct: the claims count residues 1-238 as the extracellular domain; also called human ILT3-His; ILT3_H
Method: as §1

[4] = target: T4, Rhesus monkey ILT3 expressed on CHO-K1 cells (rhesus monkey (Macaca mulatta)); assay: cELISA, CHO rhesus ILT3 cells
T4 construct: whole, on cells; also called rhILT3; CHO-rhesus ILT3

Row | Binder | Kd [1] [nM] | EC50 [2] [µg/mL] | Kd [3] [nM] | EC50 [4] [µg/mL]
1 | Chimeric anti-ILT3 52B8 mouse VH M64L/human IgG4 (S228P):mouse VL/human Kappa (antibody, V domains shown, also called mAb 75) VH: EVQLVESGGDLVKPGGSLKLSCAASGFTFSNYGMSWVRQTPDRRLEWVATISGGGDYTNYPDSLRGRFTISRDNAKNTLYLQMSSLKSEDTAMYYCGRRLWFRSLYYAMDYWGQGTSVTVSS VL: NIVLTQSPASLAVSLGQRATISCRASEKVDSFGNSFMHWYQQKPGQPPKLLIYLTSNLDSGVPARFSGSGSRTDFALTIDPVEADDAATYYCQQNNEDPYTFGGGTKLEIKR | 9.3 | 0.086 | 0.41 | 0.137
2 | Humanized anti-ILT3 mAb (52B8 VH1 M64L/VL2) IgG4 S228P/Kappa (antibody, V domains shown, also called mAb 18) VH: EVQLVESGGGLVQPGGSLRLSCAASGFTFSNYGMSWVRQAPGKGLEWVATISGGGDYTNYPDSLRGRFTISRDNAKNSLYLQMNSLRAEDTAVYYCGRRLWFRSLYYAMDYWGQGTLVTVSS VL: DIVLTQSPDSLAVSLGERATINCRASEKVDSFGNSFMHWYQQKPGQPPKLLIYLTSNLDSGVPDRFSGSGSGTDFTLTISSLQAEDVAVYYCQQNNEDPYTFGQGTKLEIKR | 22 | 0.079 | 1 | 0.137
3 | Humanized anti-ILT3 mAb (52B8 VH2 M64L/VL1) IgG4 S228P/Kappa (antibody, V domains shown, also called mAb 21) VH: EVQLVESGGGLVQPGGSLRLSCAASGFTFSNYGMSWVRQAPGKGLEWVATISGGGDYTNYPDSLRGRFTISRDNAKNSLYLQMNSLKAEDTAVYYCGRRLWFRSLYYAMDYWGQGTLVTVSS VL: DIVLTQSPDSLAVSLGERATINCRASEKVDSFGNSFMHWYQQKPGQPPKLLIYLTSNLDSGVPDRFSGSGSRTDFTLTISSLQAEDVAVYYCQQNNEDPYTFGQGTKLEIKR | 27 | 0.079 | 0.88 | 0.112
4 | Humanized anti-ILT3 mAb (52B8 VH2 M64V/VL2) IgG4 S228P/Kappa (antibody, V domains shown, also called mAb 14) VH: EVQLVESGGGLVQPGGSLRLSCAASGFTFSNYGMSWVRQAPGKGLEWVATISGGGDYTNYPDSVRGRFTISRDNAKNSLYLQMNSLKAEDTAVYYCGRRLWFRSLYYAMDYWGQGTLVTVSS VL: DIVLTQSPDSLAVSLGERATINCRASEKVDSFGNSFMHWYQQKPGQPPKLLIYLTSNLDSGVPDRFSGSGSGTDFTLTISSLQAEDVAVYYCQQNNEDPYTFGQGTKLEIKR | 22 | 0.077 | 1 | 0.126
5 | Humanized anti-ILT3 mAb (52B8 VH2 M64L/VL3) IgG4 S228P/Kappa (antibody, V domains shown, also called mAb 23) VH: EVQLVESGGGLVQPGGSLRLSCAASGFTFSNYGMSWVRQAPGKGLEWVATISGGGDYTNYPDSLRGRFTISRDNAKNSLYLQMNSLKAEDTAVYYCGRRLWFRSLYYAMDYWGQGTLVTVSS VL: EIVLTQSPATLSLSPGERATLSCRASEKVDSFGNSFMHWYQQKPGQAPRLLIYLTSNLDSGVPARFSGSGSRTDFTLTISSLEPEDFAVYYCQQNNEDPYTFGQGTKLEIKR | 24 |  | 0.96 | 
6 | Humanized anti-ILT3 mAb (52B8 VH2 M64L/VL4) IgG4 S228P/Kappa (antibody, V domains shown, also called mAb 24) VH: EVQLVESGGGLVQPGGSLRLSCAASGFTFSNYGMSWVRQAPGKGLEWVATISGGGDYTNYPDSLRGRFTISRDNAKNSLYLQMNSLKAEDTAVYYCGRRLWFRSLYYAMDYWGQGTLVTVSS VL: EIVLTQSPATLSLSPGERATLSCRASEKVDSFGNSFMHWYQQKPGQAPRLLIYLTSNLDSGIPARFSGSGSGTDFTLTISSLEPEDFAVYYCQQNNEDPYTFGQGTKLEIKR | 27 |  | 1.2 | 
7 | Humanized anti-ILT3 mAb (52B8 VH1/VL4) IgG4 S228P/Kappa (antibody, V domains shown, also called mAb 4) VH: EVQLVESGGGLVQPGGSLRLSCAASGFTFSNYGMSWVRQAPGKGLEWVATISGGGDYTNYPDSMRGRFTISRDNAKNSLYLQMNSLRAEDTAVYYCGRRLWFRSLYYAMDYWGQGTLVTVSS VL: EIVLTQSPATLSLSPGERATLSCRASEKVDSFGNSFMHWYQQKPGQAPRLLIYLTSNLDSGIPARFSGSGSGTDFTLTISSLEPEDFAVYYCQQNNEDPYTFGQGTKLEIKR | 29 |  | 1.4 | 
8 | Humanized anti-ILT3 mAb (52B8 VH2/VL3) IgG4 S228P/Kappa (antibody, V domains shown, also called mAb 7) VH: EVQLVESGGGLVQPGGSLRLSCAASGFTFSNYGMSWVRQAPGKGLEWVATISGGGDYTNYPDSMRGRFTISRDNAKNSLYLQMNSLKAEDTAVYYCGRRLWFRSLYYAMDYWGQGTLVTVSS VL: EIVLTQSPATLSLSPGERATLSCRASEKVDSFGNSFMHWYQQKPGQAPRLLIYLTSNLDSGVPARFSGSGSRTDFTLTISSLEPEDFAVYYCQQNNEDPYTFGQGTKLEIKR | 26 |  | 0.96 | 

Further binders by falling Kd [1], results first:

Row | Kd [1] [nM] | EC50 [2] [µg/mL] | Kd [3] [nM] | EC50 [4] [µg/mL] | Binder
9 | 29 |  | 1.4 |  | Humanized anti-ILT3 mAb (52B8 VH2 M64V/VL4) IgG4 S228P/Kappa (antibody, V domains shown, also called mAb 16) VH: EVQLVESGGGLVQPGGSLRLSCAASGFTFSNYGMSWVRQAPGKGLEWVATISGGGDYTNYPDSVRGRFTISRDNAKNSLYLQMNSLKAEDTAVYYCGRRLWFRSLYYAMDYWGQGTLVTVSS VL: EIVLTQSPATLSLSPGERATLSCRASEKVDSFGNSFMHWYQQKPGQAPRLLIYLTSNLDSGIPARFSGSGSGTDFTLTISSLEPEDFAVYYCQQNNEDPYTFGQGTKLEIKR
10 | 27 |  | 1.3 |  | Humanized anti-ILT3 mAb (52B8 VH2/VL4) IgG4 S228P/Kappa (antibody, V domains shown, also called mAb 8) VH: EVQLVESGGGLVQPGGSLRLSCAASGFTFSNYGMSWVRQAPGKGLEWVATISGGGDYTNYPDSMRGRFTISRDNAKNSLYLQMNSLKAEDTAVYYCGRRLWFRSLYYAMDYWGQGTLVTVSS VL: EIVLTQSPATLSLSPGERATLSCRASEKVDSFGNSFMHWYQQKPGQAPRLLIYLTSNLDSGIPARFSGSGSGTDFTLTISSLEPEDFAVYYCQQNNEDPYTFGQGTKLEIKR
11 | 26 |  | 1 |  | Humanized anti-ILT3 mAb (52B8 VH2 M64V/VL3) IgG4 S228P/Kappa (antibody, V domains shown, also called mAb 15) VH: EVQLVESGGGLVQPGGSLRLSCAASGFTFSNYGMSWVRQAPGKGLEWVATISGGGDYTNYPDSVRGRFTISRDNAKNSLYLQMNSLKAEDTAVYYCGRRLWFRSLYYAMDYWGQGTLVTVSS VL: EIVLTQSPATLSLSPGERATLSCRASEKVDSFGNSFMHWYQQKPGQAPRLLIYLTSNLDSGVPARFSGSGSRTDFTLTISSLEPEDFAVYYCQQNNEDPYTFGQGTKLEIKR
12 | 21 | 0.1 | 1.1 | 0.118 | Humanized anti-ILT3 mAb (52B8 VH2/VL2) IgG4 S228P/Kappa (antibody, V domains shown, also called mAb 6) VH: EVQLVESGGGLVQPGGSLRLSCAASGFTFSNYGMSWVRQAPGKGLEWVATISGGGDYTNYPDSMRGRFTISRDNAKNSLYLQMNSLKAEDTAVYYCGRRLWFRSLYYAMDYWGQGTLVTVSS VL: DIVLTQSPDSLAVSLGERATINCRASEKVDSFGNSFMHWYQQKPGQPPKLLIYLTSNLDSGVPDRFSGSGSGTDFTLTISSLQAEDVAVYYCQQNNEDPYTFGQGTKLEIKR
13 | 20 | 0.7 | 1.1 | 0.109 | Humanized anti-ILT3 mAb (52B8 VH1/VL2) IgG4 S228P/Kappa (antibody, V domains shown, also called mAb 2) VH: EVQLVESGGGLVQPGGSLRLSCAASGFTFSNYGMSWVRQAPGKGLEWVATISGGGDYTNYPDSMRGRFTISRDNAKNSLYLQMNSLRAEDTAVYYCGRRLWFRSLYYAMDYWGQGTLVTVSS VL: DIVLTQSPDSLAVSLGERATINCRASEKVDSFGNSFMHWYQQKPGQPPKLLIYLTSNLDSGVPDRFSGSGSGTDFTLTISSLQAEDVAVYYCQQNNEDPYTFGQGTKLEIKR
14 | 9.2 | 0.075 | 0.44 | 0.096 | Chimeric anti-ILT3 52B8 mouse VH M64V/human IgG4 (S228P):mouse VL/human Kappa (antibody, V domains shown, also called mAb 74) VH: EVQLVESGGDLVKPGGSLKLSCAASGFTFSNYGMSWVRQTPDRRLEWVATISGGGDYTNYPDSVRGRFTISRDNAKNTLYLQMSSLKSEDTAMYYCGRRLWFRSLYYAMDYWGQGTSVTVSS VL: NIVLTQSPASLAVSLGQRATISCRASEKVDSFGNSFMHWYQQKPGQPPKLLIYLTSNLDSGVPARFSGSGSRTDFALTIDPVEADDAATYYCQQNNEDPYTFGGGTKLEIKR
